The supplement of paper PMC9112550, “Optimization of the antimicrobial peptide Bac7 by deep mutational scanning” (BMC Biology, 2022)

Test system: Escherichia coli TOP10
Assay: shrunken log2 fold change of peptide-encoding DNA abundance (4.5 h post-induction vs induction); higher = less antimicrobial activity (less host growth inhibition)
Settings: time post-induction: 4.5 h; library: site-saturation at positions 5, 18, 19, 20
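Further: peptides expressed intracellularly from a pBAD plasmid library in pooled LB shake-flask culture, induced with 0.3% L-arabinose, DNA abundance read by NGS, three biological replicates, DESeq2 with apeglm shrinkage.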

Sequence | shrunken log2 fold change
RRIRLRPPRLPRPRPRPNFMPRP | -0.117
RRIRARPPRLPRPRPRPDMSPRP | 0.0274
RRIRRRPPRLPRPRPRPMKLPRP | -0.123
RRIRKRPPRLPRPRPRPHDAPRP | 0.437
RRIRQRPPRLPRPRPRPQKMPRP | -0.00813
RRIRTRPPRLPRPRPRPFMQPRP | -0.0497
RRIRHRPPRLPRPRPRPCERPRP | -0.0535
RRIRIRPPRLPRPRPRPHYQPRP | -0.463
RRIRIRPPRLPRPRPRPNEIPRP | -0.191
RRIRYRPPRLPRPRPRPCHKPRP | -0.821
RRIRHRPPRLPRPRPRPPTSPRP | -0.128
RRIRHRPPRLPRPRPRPQYSPRP | -0.572
RRIRCRPPRLPRPRPRPTGRPRP | 0.238
RRIRIRPPRLPRPRPRPTAKPRP | -0.184
RRIRLRPPRLPRPRPRPRIVPRP | -0.175
RRIRYRPPRLPRPRPRPLMCPRP | -0.632
RRIRKRPPRLPRPRPRPECFPRP | 0.7
RRIRGRPPRLPRPRPRPIVNPRP | 0.187
RRIRYRPPRLPRPRPRPYPIPRP | -0.376
RRIRERPPRLPRPRPRPRPKPRP | 0.194
RRIRVRPPRLPRPRPRPHTHPRP | -0.414
RRIRSRPPRLPRPRPRPETAPRP | 0.667
RRIRIRPPRLPRPRPRPNWIPRP | -0.565
RRIRPRPPRLPRPRPRPVAHPRP | 0.0324
RRIRPRPPRLPRPRPRPMITPRP | -0.407

Sequence | shrunken log2 fold change
RRIRCRPPRLPRPRPRPTWQPRP | 0.288
RRIRRRPPRLPRPRPRPDGIPRP | 0.282
RRIRTRPPRLPRPRPRPDKKPRP | -0.0143
RRIRHRPPRLPRPRPRPQGMPRP | -0.201
RRIRPRPPRLPRPRPRPGLHPRP | 0.09
RRIRARPPRLPRPRPRPISNPRP | -0.174
RRIRIRPPRLPRPRPRPMEKPRP | -0.229
RRIRCRPPRLPRPRPRPDLYPRP | -0.0793
RRIRTRPPRLPRPRPRPVIKPRP | -0.237
RRIRYRPPRLPRPRPRPVWEPRP | -0.3
RRIRGRPPRLPRPRPRPDIPPRP | 0.23
RRIRGRPPRLPRPRPRPGHCPRP | 0.4
RRIRIRPPRLPRPRPRPHSQPRP | -0.824
RRIRVRPPRLPRPRPRPEHEPRP | -0.12
RRIRDRPPRLPRPRPRPIDHPRP | -0.273
RRIRGRPPRLPRPRPRPDDWPRP | 1.5
RRIRSRPPRLPRPRPRPFRWPRP | 0.119
RRIRGRPPRLPRPRPRPNTDPRP | 0.197
RRIRQRPPRLPRPRPRPMKLPRP | 0.00355
RRIRFRPPRLPRPRPRPHAMPRP | 0.203
RRIRIRPPRLPRPRPRPDHFPRP | -0.0602
RRIRKRPPRLPRPRPRPGFGPRP | 1.35
RRIRKRPPRLPRPRPRPMWPPRP | -0.00167
RRIRWRPPRLPRPRPRPMVEPRP | 0.35
RRIRWRPPRLPRPRPRPSQPPRP | -0.0613

Sequence | shrunken log2 fold change
RRIRFRPPRLPRPRPRPPMIPRP | -0.224
RRIRHRPPRLPRPRPRPPHDPRP | 0.047
RRIRDRPPRLPRPRPRPHGTPRP | 0.0175
RRIRRRPPRLPRPRPRPTPKPRP | 1.24
RRIRARPPRLPRPRPRPWFNPRP | -0.142
RRIRKRPPRLPRPRPRPMHSPRP | -0.0199
RRIRFRPPRLPRPRPRPHLSPRP | -0.219
RRIRSRPPRLPRPRPRPRLYPRP | 0.114
RRIRKRPPRLPRPRPRPKTVPRP | 0.355
RRIRYRPPRLPRPRPRPFVHPRP | -1.49
RRIRVRPPRLPRPRPRPHHGPRP | -0.348
RRIRKRPPRLPRPRPRPQIYPRP | -0.159
RRIRCRPPRLPRPRPRPPYQPRP | -0.138
RRIRRRPPRLPRPRPRPNRCPRP | 0.118
RRIRDRPPRLPRPRPRPTNIPRP | -0.271
RRIRMRPPRLPRPRPRPVHCPRP | 0.517
RRIRNRPPRLPRPRPRPQPPPRP | 0.833
RRIRIRPPRLPRPRPRPVGHPRP | -0.0495
RRIRGRPPRLPRPRPRPMKMPRP | 0.00988
RRIRDRPPRLPRPRPRPLCDPRP | 0.287
RRIRPRPPRLPRPRPRPCADPRP | 0.213
RRIRWRPPRLPRPRPRPDKQPRP | 0.0432
RRIRHRPPRLPRPRPRPVTYPRP | -0.181
RRIRARPPRLPRPRPRPMQCPRP | 0.0593
RRIRDRPPRLPRPRPRPHDVPRP | -0.00973

Sequence | shrunken log2 fold change
RRIRARPPRLPRPRPRPHSHPRP | 0.144
RRIRKRPPRLPRPRPRPYETPRP | 0.00149
RRIRMRPPRLPRPRPRPRADPRP | 1.73
RRIRGRPPRLPRPRPRPKMCPRP | 0.102
RRIRLRPPRLPRPRPRPYTMPRP | -0.923
RRIRSRPPRLPRPRPRPVAMPRP | 0.0384
RRIRHRPPRLPRPRPRPYTWPRP | -1.02
RRIRYRPPRLPRPRPRPSIHPRP | -0.722
RRIRQRPPRLPRPRPRPGESPRP | 0.0357
RRIRCRPPRLPRPRPRPKWVPRP | 0.0707
RRIRTRPPRLPRPRPRPEVMPRP | 0.114
RRIRWRPPRLPRPRPRPTRRPRP | 0.377
RRIRPRPPRLPRPRPRPIKRPRP | -0.125
RRIRYRPPRLPRPRPRPAQGPRP | -0.0469
RRIRVRPPRLPRPRPRPRRMPRP | 0.422
RRIRIRPPRLPRPRPRPELTPRP | -0.0457
RRIRLRPPRLPRPRPRPWYVPRP | -0.125
RRIRTRPPRLPRPRPRPASGPRP | 0.614
RRIRHRPPRLPRPRPRPHSPPRP | -0.468
RRIRARPPRLPRPRPRPHEHPRP | 0.0352
RRIRCRPPRLPRPRPRPRYAPRP | -0.229
RRIRMRPPRLPRPRPRPIPAPRP | 0.788
RRIRCRPPRLPRPRPRPFRDPRP | -0.0732
RRIRQRPPRLPRPRPRPVMTPRP | -0.172
RRIRWRPPRLPRPRPRPIKAPRP | 0.00489

Sequence | shrunken log2 fold change
RRIRLRPPRLPRPRPRPVIFPRP | -0.141
RRIRKRPPRLPRPRPRPLQDPRP | 0.485
RRIRGRPPRLPRPRPRPPRFPRP | 1.04
RRIRHRPPRLPRPRPRPAVFPRP | -0.0167
RRIRPRPPRLPRPRPRPHMGPRP | -0.461
RRIRPRPPRLPRPRPRPRGPPRP | 0.545
RRIRWRPPRLPRPRPRPTLPPRP | 0.128
RRIRCRPPRLPRPRPRPWHAPRP | -0.271
RRIRCRPPRLPRPRPRPQYVPRP | -0.345
RRIRFRPPRLPRPRPRPVANPRP | -0.1
RRIRSRPPRLPRPRPRPIQYPRP | -0.383
RRIRSRPPRLPRPRPRPYSPPRP | -0.839
RRIRPRPPRLPRPRPRPVELPRP | -0.0271
RRIRWRPPRLPRPRPRPDLTPRP | 0.251
RRIRTRPPRLPRPRPRPTVLPRP | -0.0554
RRIRLRPPRLPRPRPRPYGYPRP | -0.01
RRIRYRPPRLPRPRPRPWAGPRP | -0.53
RRIRCRPPRLPRPRPRPHGFPRP | -0.0942
RRIRERPPRLPRPRPRPNPDPRP | -0.2
RRIRDRPPRLPRPRPRPPEAPRP | 0.479
RRIRSRPPRLPRPRPRPHLYPRP | -0.02
RRIRDRPPRLPRPRPRPFGFPRP | -0.0238
RRIRCRPPRLPRPRPRPEVEPRP | 0.254
RRIRMRPPRLPRPRPRPWDHPRP | 0.0477
RRIRYRPPRLPRPRPRPVNTPRP | -0.473
